Some results are limits rather than exact numbers.

Test in all cases: cell-based or functional assay
The target in experiment [1] is HXBc2 envelope glycoproteins on recombinant HIV-1 (HIV-1, TCLA strain HXBc2) (UniProt P04578).
Experiment [2] deals with YU2 envelope glycoproteins on recombinant HIV-1 (HIV-1, primary isolate YU2) (UniProt P35961).
Experiment [3] concerns the target ADA envelope glycoproteins on recombinant HIV-1 (HIV-1, primary isolate ADA).

Chain of UniProt P35961 (P35961 32-843): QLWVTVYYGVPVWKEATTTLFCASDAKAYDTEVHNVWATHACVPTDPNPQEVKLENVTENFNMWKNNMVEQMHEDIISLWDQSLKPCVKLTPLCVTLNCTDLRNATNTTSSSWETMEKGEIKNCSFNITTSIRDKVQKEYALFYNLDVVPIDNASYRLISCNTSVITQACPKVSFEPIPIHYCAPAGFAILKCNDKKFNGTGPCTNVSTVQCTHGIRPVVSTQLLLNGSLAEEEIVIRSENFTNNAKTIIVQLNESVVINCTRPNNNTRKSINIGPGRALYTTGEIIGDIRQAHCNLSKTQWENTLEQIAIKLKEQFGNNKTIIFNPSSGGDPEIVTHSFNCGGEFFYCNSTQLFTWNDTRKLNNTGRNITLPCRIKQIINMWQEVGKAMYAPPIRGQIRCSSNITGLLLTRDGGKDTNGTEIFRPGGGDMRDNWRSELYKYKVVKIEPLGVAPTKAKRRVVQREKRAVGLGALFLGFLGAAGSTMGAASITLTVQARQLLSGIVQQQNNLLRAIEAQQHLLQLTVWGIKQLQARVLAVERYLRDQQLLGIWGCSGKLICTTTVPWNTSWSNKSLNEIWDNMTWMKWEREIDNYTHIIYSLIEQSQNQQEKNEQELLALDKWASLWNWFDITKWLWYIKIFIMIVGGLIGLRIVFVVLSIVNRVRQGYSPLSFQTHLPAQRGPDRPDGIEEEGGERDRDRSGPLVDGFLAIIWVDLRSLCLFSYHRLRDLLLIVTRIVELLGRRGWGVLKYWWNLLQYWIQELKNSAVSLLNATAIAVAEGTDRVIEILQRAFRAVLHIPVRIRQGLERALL

Regarding IgG1b12 antibody, in experiment [1], the 90% neutralization of recombinant virus, single-round luciferase entry assay (g/ml (so in the source); symbol garbled)) is 1.25. Moreover, in experiment [2], the 50% neutralization of recombinant virus, single-round luciferase entry assay (:g/ml (so in the source); symbol garbled)) was 5 and the 90% neutralization of recombinant virus, single-round luciferase entry assay (:g/ml (so in the source); symbol garbled)) was above 20. In experiment [3], the 50% neutralization of recombinant virus, single-round luciferase entry assay (:g/ml (so in the source); symbol garbled)) was found to be 2.5 and the 90% neutralization of recombinant virus, single-round luciferase entry assay (:g/ml (so in the source); symbol garbled)) is above 10.

These data come from patent US20050106177A1.
